Measured values: patent publication US20200247894A1 (Regeneron, published 2020)

T1: D1 domain of human IL-2Rγ extracellular domain expressed with a C-terminal myc-myc-hexahistidine tag (human)
T1 construct: also called human IL2Rγ domain 1
T1 chain: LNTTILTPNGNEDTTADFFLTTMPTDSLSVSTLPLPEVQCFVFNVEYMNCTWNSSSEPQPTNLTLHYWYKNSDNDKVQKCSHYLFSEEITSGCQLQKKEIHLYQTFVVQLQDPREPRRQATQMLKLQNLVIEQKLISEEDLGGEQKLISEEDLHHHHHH

T2: human IL2Rγ (endogenously expressed on cells) (human, UniProt P31785 23-369)
T2 sequence (looked up): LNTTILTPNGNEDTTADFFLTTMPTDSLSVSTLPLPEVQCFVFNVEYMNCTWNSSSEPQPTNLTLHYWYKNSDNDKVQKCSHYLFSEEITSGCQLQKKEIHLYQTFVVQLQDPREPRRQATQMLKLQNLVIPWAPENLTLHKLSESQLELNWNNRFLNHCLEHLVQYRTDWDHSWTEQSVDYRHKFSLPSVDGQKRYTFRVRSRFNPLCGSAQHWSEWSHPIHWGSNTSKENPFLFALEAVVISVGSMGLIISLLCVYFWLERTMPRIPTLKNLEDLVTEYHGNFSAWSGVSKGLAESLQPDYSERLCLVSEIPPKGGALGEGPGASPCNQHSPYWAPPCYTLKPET

T3: D2 domain of human IL2Rγ extracellular domain expressed with a C-terminal myc-myc-hexahistidine tag (human)
T3 construct: also called human IL2Rγ domain 2
T3 chain: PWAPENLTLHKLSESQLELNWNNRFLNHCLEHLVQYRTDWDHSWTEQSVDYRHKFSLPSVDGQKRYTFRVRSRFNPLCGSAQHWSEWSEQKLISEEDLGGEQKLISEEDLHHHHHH


Legend:
[1] = target: T1, D1 domain of human IL-2Rγ extracellular …; experiment: SPR, mAb captured on anti-hFc, 37 C
Outline: (§1)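 KD and dissociative half-life come from rate constants obtained by 1:1 binding-model fits of real-time sensorgrams. Antibodies sit on an anti-human Fc capture surface, with HBS-ET (pH 7.4) as running buffer and an 8-10 minute dissociation phase.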

[2] = target: T2, human IL2Rγ (endogenously expressed on …); experiment: cell-based or functional assay
[3] = target: T3, D2 domain of human IL2Rγ extracellular …; experiment: SPR, mAb captured on anti-hFc, 37 C
Description: (§2) Equilibrium dissociation constants (KD values) for IL-2Rγ binding to purified anti-IL2Rγ monoclonal antibodies were determined using a Biacore 4000 instrument equipped with a real-time surface plasmon resonance biosensor. All binding studies were performed in 10 mM HEPES, 150 mM NaCl, 3 mM EDTA, and 0.05% v/v Surfactant Tween-20, pH 7.4 (HBS-ET) running buffer at 25° C. and 37° C. The Biacore sensor surface was first derivatized by amine coupling with a monoclonal mouse anti-human Fc antibody (GE, # BR-1008-39) to capture anti-IL2Rγ monoclonal antibodies.

[4] = target: T2, human IL2Rγ (endogenously expressed on …); experiment: cell-based or functional assay; remark: listed apart in the source
[5] = target: T3, D2 domain of human IL2Rγ extracellular …; experiment: SPR, mAb captured on anti-hFc, 25 C
Description: as §2

[6] = target: T1, D1 domain of human IL-2Rγ extracellular …; experiment: SPR, mAb captured on anti-hFc, 25 C
Outline: as §1

[7] = target: T2, human IL2Rγ (endogenously expressed on …); experiment: cell-based or functional assay; remark: listed apart in the source
[8] = target: T1, D1 domain of human IL-2Rγ extracellular …; experiment: SPR, mAb captured on anti-hFc, 25 C; 25 C
Description: as §2
The dissociation of monoclonal antibody bound IL2Rγ reagents were monitored for 8-10 minutes in HBS-ET running buffer. Kinetic association (kₐ) and dissociation (kd) rate constants were determined by fitting the real-time sensorgrams to a 1:1 binding model using Scrubber 2.0c curve fitting software. Binding dissociation equilibrium constants (KD) and dissociative half-lives (t_{1/2}) were calculated from the kinetic rate constants as: […]

| 100 nM Ag Bound [1] [RU] | Kd [1] [nM] | koff [1] [s⁻¹] | kon [1] [M⁻¹ s⁻¹] | t½ [1] [min] | IC50; IL-2 (10 nM)-induced STAT phosphorylation, human CD4+ T cells [2] [nM] | IC50; IL-4 (50 pM)-induced STAT phosphorylation, human CD4+ T cells [2] [M] | IC50; IL-7 (1 pM)-induced STAT phosphorylation, human CD4+ T cells [2] [M] | IC50; IL-15 (0.5 nM)-induced STAT phosphorylation, human CD4+ T cells [2] [nM] | IC50; IL-21 (50 pM)-induced STAT phosphorylation, human CD4+ T cells [2] [M] | 100 nM Ag Bound [3] [RU] | IC50; IL-2 30 pM; NK92/hIL7R/STAT3-luc [4] [M] | IC50; IL-4 250 pM; Ramos.2G6.4C10/STAT3-luc [4] [M] | IC50; IL-7 50 pM; NK92/hIL7R/STAT3-luc [4] [M] | IC50; IL-9 20 pM; NK92/hIL7R/STAT3-luc [4] [M] | IC50; IL-15 60 pM; NK92/hIL7R/STAT3-luc [4] [M] | IC50; IL-21 5 pM; NK92/hIL7R/STAT3-luc [4] [M] | Max Inhibition (%); IL-2 30 pM; NK92/hIL7R/STAT3-luc [4] [%] | 100 nM Ag Bound [5] [RU] | binding result [5] | Binder | further results |
| --- | --- | --- | --- | --- | --- | --- | --- | --- | --- | --- | --- | --- | --- | --- | --- | --- | --- | --- | --- | --- | --- |
| 16 | 20 | 0.00507 | 254000 | 2.3 | 2.06 | 1.1e-09 | 8.92e-10 | 2.55 | 2.28e-09 | 0 | 2.7e-08 | 1.9e-09 | 3e-09 | 7.1e-09 | 8.5e-09 | > 1e-07 | 81 | 0 | no binding (tested: 100 nM) | H4H12889P (antibody, human IgG4 S228P, kappa, V domains shown, human IgG4; also called REGN7257) VH: EVQLVESGGGLVQPGGSLRLSCAASGFIFSSYEMHWVRQAPGKGLEWISYISSSGTTIYYADSVKGRFTISRDNAKNSLYLHMNSLRAEDTAVYYCTRARITGTFDVFDIWGQGTMVTVSS VL: DIQMTQSPSSLSASVGDRVTITCRASQSISSYLNWYQQKPGKAPKLLIFAASNLQSGVPSRFSGSRSGTDFTLTISSLQPEDFATYYCQQNYNIPYTFGQGTKLEIKR | Max Inhibition (%); IL-4 250 pM; Ramos.2G6.4C10/STAT3-luc [4]: 101%; Max Inhibition (%); IL-7 50 pM; NK92/hIL7R/STAT3-luc [4]: 100%; Max Inhibition (%); IL-9 20 pM; NK92/hIL7R/STAT3-luc [4]: 100%; Max Inhibition (%); IL-15 60 pM; NK92/hIL7R/STAT3-luc [4]: 92%; Max Inhibition (%); IL-21 5 pM; NK92/hIL7R/STAT3-luc [4]: 35%; 100 nM Ag Bound [6]: 38 RU; Kd [6]: 5.34 nM; koff [6]: 0.00107 s⁻¹; kon [6]: 200000 M⁻¹ s⁻¹; t½ [6]: 11 min; IC50; IL-9 (2 nM)-induced STAT3 phosphorylation, in vitro differentiated human mast cells [7]: 0.441 nM |
| – | – | – | – | – | – | – | – | – | – | 0 | – | – | – | – | – | – | – | 0 | no binding (tested: 100 nM) | H4H12926P2 (antibody, human IgG4 S228P, kappa, V domains shown, human IgG4) VH: QVQLQQSGPGLVKPSQTLSLTCAISGDSVSSNIAAWNWIRLSPSRGLEWLGRTFFRSTWFYDYSLSVKGRITINPDTSKNQFSLHLNSVTPEDAAVYYCARTGRRWSLDYWGQGTLVTVSS VL: not shown | Kd [8]: 195 nM; koff [8]: 0.0273 s⁻¹; kon [8]: 140000 M⁻¹ s⁻¹; t½ [8]: 0.4 min |
| 26 | 4.13 | 0.00168 | 407000 | 7 | 1.87 | 8.54e-10 | 5.8e-10 | 2.46 | 2.21e-09 | 3 | 1.6e-08 | 1.3e-09 | 2.6e-09 | 3.1e-09 | 9.3e-09 | > 1e-07 | 85 | 2 | no binding (tested: 100 nM) | H4H12922P2 (antibody, human IgG4 S228P, kappa, V domains shown, human IgG4; also called REGN7256) VH: QVQLVESGGGVVKPGGSLRLSCAASGFTFSNSGIHWVRQAPGKGLEWVALISYAGSNKYYADSVKGRFTISRDNSKNTLSLQMNSLRAEDTAVYYCAKEVWTGTYDSFDMWGRGTMVTVSS VL: not shown | Max Inhibition (%); IL-4 250 pM; Ramos.2G6.4C10/STAT3-luc [4]: 100%; Max Inhibition (%); IL-7 50 pM; NK92/hIL7R/STAT3-luc [4]: 98%; Max Inhibition (%); IL-9 20 pM; NK92/hIL7R/STAT3-luc [4]: 99%; Max Inhibition (%); IL-15 60 pM; NK92/hIL7R/STAT3-luc [4]: 91%; Max Inhibition (%); IL-21 5 pM; NK92/hIL7R/STAT3-luc [4]: 49%; 100 nM Ag Bound [6]: 50 RU; Kd [6]: 3.32 nM; koff [6]: 0.000839 s⁻¹; kon [6]: 252000 M⁻¹ s⁻¹; t½ [6]: 14 min; IC50; IL-9 (2 nM)-induced STAT3 phosphorylation, in vitro differentiated human mast cells [7]: 0.416 nM |
